The results in this text go back to US20070298494A1 (KANSAS STATE UNIVERSITY RESEARCH FOUNDATION, published 2007).

First the molecules themselves.
B1: NK4A'Wa' (peptide)
peptide: KKKKAARVGLGITTVWVTTIGLGVRAA
notes: Synthetic peptide; tested for association with itself in solution by BS3 cross-linking and SDS-PAGE
B2: N-K4-M2GlyR (peptide)
peptide: KKKKPARVGLGITTVLTMTTQSSGSRA
notes: Synthetic peptide; tested for association with itself in solution by BS3 cross-linking and SDS-PAGE; also called NK4ALB
B3: C-K4-M2GlyR (peptide)
peptide: PARVGLGITTVLTMTTQSSGSRAKKKK
notes: Synthetic peptide; tested for association with itself in solution by BS3 cross-linking and SDS-PAGE; also called CK4ALB

The series concerns the molecule itself. The series is described as follows: BS3 chemical cross-linking in solution, SDS-PAGE, silver stain; association of the peptide with itself. The protocol:
In order to visualize the oligomeric state of the peptide in solution a chemical cross-linking protocol was developed. Calculated amounts of each peptide were weighted out and dissolved in 1 mL of distilled water to make 1 mM stock solutions. A 100 mM stock solution of the chemical crosslinking reagent Bis[Sulfosuccinimidyl]suberate, BS³, (Pierce Chemical Co., Rockford, Ill.) was prepared in dimethyl sulfoxide (DMSO). In typical reactions, 5-30 μL of 1.0 mM stock solution of peptide are added to 64-94 μL of 10 mM HEPES buffer, pH 8.1 to give a range of concentrations starting at 50 μM rising up to 300 μM. Sample were allowed to sit at room temperature for 15 minutes. 1-6 μL of 100 mM BS³ was then added to the previously prepared peptide such that the crosslinking reagent was present in 20-fold excess. The final volume for each reaction was 100 μL. After reacting for 30 minutes, the reaction was stopped with the addition of 10 μL 1.0 N HCl. Each sample was then vacuum dried. Later dry samples were re-dissolved in 60 μL of distilled water along with 60 μL of a 2×-tricine SDS sample buffer (Novex, San Diego). All samples were then boiled at 100° C. for 5 minutes. 5 μL aliquots of each SDS boiled sample was then loaded into separate lanes of pre-cast, 1.0 mm, 10 well, 10-20% tricine gels (Novex, San Diego). Pre-made Novex tricine-SDS buffer was used in the electrophoresis. The reference well contained 1 μL of MultiMark® multi-colored molecular weight standard (Novex, San Diego). The electrophoresis was carried out at a constant 110 Volts for 90 minutes. The gel was then fixed in 40% methanol in water and the cross-linked peptides visualized using silver staining (SilverXpress® silver staining kit, Invitrogen, Carlsbad, Calif.).
Turning to B1, the binding result is reported as “no binding”.
With B2, the binding result is recorded as “binds”.
Take B3: the binding result is given as “binds”.
